The text below walks through data of patent publication US20230226096A1 (Orna Therapeutics, Inc., priority 2020, published 2023).

This series relates to HEK293 cells. In kind it is cell-based, human. As to conditions: luminescence from secreted Gluc in supernatant 24 hours after transfection of HEK293 cells; circular RNA encoding Gluc with the named IRES (UTR truncated to 675 nt).

B1: Burpengary Virus (nucleic acid)
DNA: CTCCCCCCCCTTCCCCTTCCCGAGTAGGAGATTGGCATGTATGCTCTACATGCCCGATTCTCTCTTGCTCACTCTCTTAAATCCTGGTGGCGGTCTCGGATTAAACATTTATGTCGTATCTGGGATCGTCTTACTTGGTGGTAATTCCTCTGTTGCCTAGGGACCTCCGGACTGCCGGATTAAAGGTCTCAACAGAGGGCAATGTACAAGGAAGTCATTATACGCTAATTAAGTATTTGATGAATGACTAGTGTGACAGGGCTGAGGAACTCCCCCCGGGTAACCGGTGCCTCAGCGTCCGAAAGACACGTGGATAGGATCCACCCTGTTATACCCAGCACGATGTAATAGTCAAATACCTCTGATTTGTGTAGGATGTATAAATTGTGCATTGTAAATTTTGGGCGTAGAGATGCTCCGAAGGTACCCCGTTTTACGGGATCTGATCGGAGGCTAATTACCCAATGCGCCCTAAATAACTTCATATAATTTCTTTTTCTTTATTCAAA
Molecule B1 showed an Expression of 1.09E+07.

B2: Hunnivirus A1 (nucleic acid, listed as Hunnivirus sp.)
DNA: TAACGTTTGGCAAGAACCCTCACCTGTCAATTGGGACCACCACTTTCAGTGACCCCATGCGAAGTAGTGAGAGAGAATAAGCTTTCTTACCCTTCATTTGTGAACCCTTCAGTCGAAGCCGCTTGGAATAAGATAGGAGGAAAAGTTCATTCTAAATGGAGTGAAACATGTACTTCAGAATTTCTAGCACGCGCTGGGCTTTCTTGCGTGTGACGGCACTGTCTTGCCGGAGCTCTCCACACTGACACCCCACGCTTGTGGACCTTGGTGGCAGATGACAACACTGCAGCTGGAATTGAGTGTCTGGTACACTCTGTGTAACAGTGAAAACAATGTGATCACTTCGGTGAGCTAGTAGCCTGTGGACCAACAACTGGTAACAGTTGCCTCAGGGGCCAAAAGCCACGGTGTTTACAGCACCCTACTGGTTTGATTGGAGCAATCCAAGATGTCACAGAGTTAGTAATTGCCAAGCAGTCCGTACTGGTATCTTGACATACCGTGCAGTTTTGGATAGTGAAGGATGCCCTGACGGTACCCATAGGTAACAAGTGACACTATGGATCTAAGCAGGGGCTCACTCTACGCTGCTTTACAGCTGGCTGTGAGTTAAAAAACGTCTAGCTATCCACAACCTAGGGGACTAGGTTTTCCTTTTATTTAGATTACAATTAT
In turn, B2 displayed an Expression of 1.61E+06.

B3: Mobovirus A (nucleic acid)
DNA: TATTCTCCCACAAACCTTCTTGTAACTCTGTTAAGCCTTTTACATCCATGTAATTTAATTTTCTCCACCTAAAAGGATTTCCCCCATGGTCCTTTTTGGCTCGAACAAATGCTACATAGGGTCTTGTTTTCTCCCCCTGGCTCTCTTGCCAGGGTTCCATACCCCAATTCCTCTATTTCCATGATTTTTCATCATGGTTTATTTTTACTGTCTTCTTATTTTCTGAGGTGACCAACTCCTAAGCCGACTGGGTCGCGGAAGCCCGGACTCCTCGCATCACTAGGGTGCGTAGCGATGTAGGCGAAAATATTGGTTGCTAGATGCATACATATAGTGAATTGATACTACACCAAACTCTGTTCTTTTTGAAACTAGCTATTTTCTAAGTAAGGTAGGCTACGGGTGAAACCTTACCATTGCAGGTACGTGAACCGCAACGGACATTTGGCCGAAGACTGGTGTACCCACGTCAGTTATAGGACCTCTTCAACGTTGGTGGACGGCATGTCACTGATTAGTTAGGCTAGTGAATTTAAGTTCAGGGGGTATCTTTTAGCTTAAGCGTGTATTCTAGTAGGACTTGCAGAGCCTCCCCACCTAGGAGGATCTCTGTTTATAGCCCCTTTTCCTTGTTCCGTTAGTTTTCCACACTTTTACAATATTTGATGATTTGTT
As for B3, the Expression was found to be 3.44E+06.
